This note sets out measurements from patent publication US20250296912A1.

The target in the experiment is prostate specific antigen (Homo sapiens).

As to “Analog 210 (Ac-Hyp-Ser-Ser-Chg-Gln-Ser-Ser-Pro-O-(CH2)3-acylfulvene) (peptide)”, the IC50 (48 hour exposure), Prostate DuPro (trace PSA) is 3500 nM and the IC50 (48 hour exposure), Prostate LnCAP (positive PSA) is 810 nM.

The substance “Analog 215 (Illudin S-Pro-Ser-Ser-Gln-Chg-Ser-Ser-Hyp-Ac) (peptide)” registered an IC50 (48 hour exposure), Prostate LnCAP (positive PSA) of over 20000 nM. On to “Analog 216 (Illudin M-Pro-Ser-Ser-Gln-Chg-Ser-Ser-Hyp-Ac) (peptide)”, for which the IC50 (48 hour exposure), Prostate DuPro (trace PSA) amounted to 280 nM and the IC50 (48 hour exposure), Prostate LnCAP (positive PSA) came to 190 nM.
